Values belong to the molecule of their own block, whether it stands above or below them.
Key:
[1] = molecular target: Full-length human ADAM8 on cells (HEK293-ADAM8 stable or transfected cells; also endogenous ADAM8 of breast cell lines and PDX tumors) (human) (UniProt P78325); assay: FACS, HEK293-ADAM8 cells, column 1 µg/ml, negative control
[2] = molecular target: Full-length human ADAM8 on cells (HEK293-ADAM8 stable or transfected cells; also endogenous ADAM8 of breast cell lines and PDX tumors) (human) (UniProt P78325); assay: FACS, HEK293-ADAM8 cells, column 10 µg/ml, negative control
[3] = molecular target: Full-length human ADAM8 on cells (HEK293-ADAM8 stable or transfected cells; also endogenous ADAM8 of breast cell lines and PDX tumors) (human) (UniProt P78325); assay: FACS, HEK293-ADAM8 cells, column 0.1 µg/ml, negative control
[4] = molecular target: Recombinant human ADAM8 (rHuADAM8) ectodomain protein (aa 17-497), ACRO Biosystems AD8-H5223 (human) (UniProt P78325); assay: adhesion of α9β1 integrin CHO cells to coated rHuADAM8, antibody 20 µg/ml, vs isotype control IgG; mean ± S.D., n=3
[5] = molecular target: Full-length human ADAM8 on cells (HEK293-ADAM8 stable or transfected cells; also endogenous ADAM8 of breast cell lines and PDX tumors) (human) (UniProt P78325)
[6] = molecular target: T1, Recombinant human ADAM8 (rHuADAM8) ectodomain protein (aa 17-497), ACRO Biosystems AD8-H5223 (human, UniProt P78325 17-497); assay: ELISA on coated rHuADAM8, antibody 0 to 2.5 nM
T1 construct: Bought protein made in HEK293 cells; The protein clips off its own prodomain (aa 17-191); also called rhADAM8; immunogen
T1 sequence: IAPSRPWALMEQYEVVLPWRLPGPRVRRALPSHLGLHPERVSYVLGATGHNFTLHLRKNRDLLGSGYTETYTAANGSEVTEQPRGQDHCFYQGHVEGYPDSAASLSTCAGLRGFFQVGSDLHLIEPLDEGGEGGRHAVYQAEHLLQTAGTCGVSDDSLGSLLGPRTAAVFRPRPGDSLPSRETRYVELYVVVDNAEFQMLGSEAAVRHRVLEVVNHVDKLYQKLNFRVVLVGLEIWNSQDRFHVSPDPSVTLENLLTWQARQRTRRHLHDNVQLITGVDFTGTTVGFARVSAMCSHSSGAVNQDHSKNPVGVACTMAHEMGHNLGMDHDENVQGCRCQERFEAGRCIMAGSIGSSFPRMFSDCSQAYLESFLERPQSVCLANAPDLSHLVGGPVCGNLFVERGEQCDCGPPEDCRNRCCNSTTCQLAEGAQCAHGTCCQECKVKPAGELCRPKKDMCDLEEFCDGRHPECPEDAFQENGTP

[7] = molecular target: Quenched fluorescent CD23 peptide (Biozyme, PEPDAB013m001)

Molecule: MAB1031 anti-ADAM8 antibody (R&D Systems)
% inhibition of α9β1 integrin binding to ADAM8 [4]: 63.4 % inhibition
% inhibition of CD23 cleavage (MP activity), HEK293 cells co-expressing CD23 and ADAM8, antibody 20 µg/ml [5]: 65.8 % inhibition
% inhibition of transendothelial migration of MDA-MB-231 cells through HUVEC, antibody 20 µg/ml [5]: 42.4 % inhibition

B1: chADP2-IgG1 (antibody, V domains shown)
VH: EVKLVESGGGLVQPGGSLSLSCAASGFSFPDYYMSWVRQPPGKALEWLGFIRDSANGYTTEYIASVKGRFTFSRDNSQSILYLQMNALRAEDSATYYCARYSRYYGMDYWGQGTSVTVSS
VL: SIVMTQTPKILLVSAGDRVTITCKASQTVNYDVAWYQQKPGQSPKPVIYFASNRYTGVPDRFTGSGFGTDFTFTISTVQAEDLAVYFCQQDYSAPWTFGGGTKLEIKR
notes: Mouse ADP2 VL and VH joined to germline human IgG1 CL and CH; made in CHO cells; also called chimeric ADP2
Kd [6]: 0.0366 nM

B2: Recombinant human ADAM8 (rHuADAM8) ectodomain protein (aa 17-497), ACRO Biosystems AD8-H5223 (protein)
chain: IAPSRPWALMEQYEVVLPWRLPGPRVRRALPSHLGLHPERVSYVLGATGHNFTLHLRKNRDLLGSGYTETYTAANGSEVTEQPRGQDHCFYQGHVEGYPDSAASLSTCAGLRGFFQVGSDLHLIEPLDEGGEGGRHAVYQAEHLLQTAGTCGVSDDSLGSLLGPRTAAVFRPRPGDSLPSRETRYVELYVVVDNAEFQMLGSEAAVRHRVLEVVNHVDKLYQKLNFRVVLVGLEIWNSQDRFHVSPDPSVTLENLLTWQARQRTRRHLHDNVQLITGVDFTGTTVGFARVSAMCSHSSGAVNQDHSKNPVGVACTMAHEMGHNLGMDHDENVQGCRCQERFEAGRCIMAGSIGSSFPRMFSDCSQAYLESFLERPQSVCLANAPDLSHLVGGPVCGNLFVERGEQCDCGPPEDCRNRCCNSTTCQLAEGAQCAHGTCCQECKVKPAGELCRPKKDMCDLEEFCDGRHPECPEDAFQENGTP
fluorescence released from a quenched CD23 peptide over 24 hr [7]: An increase in fluorescence was seen over time in samples with rHuADAM8, which was inhibited in the presence of the chelating agent EDTA

The next lines start with the values.

MFI [1]: 3.2 MFI
MFI [2]: 4 MFI
MFI [3]: 3.3 MFI
Molecule: mIgG (antibody)

Kd [6]: 0.0795 nM
B3: chADP13-IgG1 (antibody, V domains shown)
VH: EVQLQQSGPEMVKPGTSVKISCKASGYTFTDYYINWVKQSHGKSLEWIGDISPNIGGATYNPKFKGKAILTVDKSARTAYMELRSLTSEDSAVYCCTRGGSSYPYFYAMDYWGQGTSVTVSS
VL: DIVMSQSPSSLAVSVGEKVTMSCKSSQSLLYSSNQKKYLAWYQQKPGQSPKLLIYWASTRESGVPDRFTGSGSGTDFTLTISSVKAEDLAVYYCQQFYSYPYTFGGGTKLEIKR
notes: Mouse ADP13 VL and VH joined to germline human IgG1 CL and CH; made in CHO cells; also called chimeric ADP13

Source: patent US20220227882A1 (TRUSTEES OF TUFTS COLLEGE, published 2022)
